Data published in patent US20250027068.
Substitutions are numbered along the chain they refer to.

B1: PRT-19 (protein)
chain: MANQEIRYSEESPSVVTSVWTKGVTPPANFTYGEDVFHAPYIANQGWYDITKTFNGKDDLLCGAATAGNMLHWWFDQNKDEIEAYLKKHPEKQKINFNGEQMFDVKEAIDTKDDQTNSKLFNYFKDKAFPYLSTKHLGVFPDHVLDMFINGYRLNLTNHGPTPVKEGSKDPRGGIFDAVFTRGDQSKLLTSRHDFKEKTLKEISDLIKQELTEGKALGLSHTYANVRINHVINLWGADFNSEGNLKAIYVTDSDSNASIGMKKYFVGVNAAGKVAISAKEIKDDNIGAQVLGLFTLSTGQDIWNQTN
B2: PRT-21 (protein)
chain: MANQEIRYSEVSPSTVTSVWTKGVTPPTNFTYGEDVLHAPYVANQGWYDITKTFNGKDDLLCGAATAGNMLHWWFDQNKEQIENYLKKHPEKQKINFNGEQMFDVKEAIDTKDSQLDSKLFEYFKEKAFPYLSTKHLGVFPDHVIDMFINGYRLSLTNHGPTPVKRGSKDPRGGIFDAVFTRGDQSKLLTNRHDFKEKTLKEISDLIKQELTEGKALGISHTYANVRINHVINLWGADFDAEGNLEAIYVTDSDSNASIGMKKYFVGVNSNGKVAISAKEIEEDNIGAQVLGLFTLSTGQDIWNQTN
B3: PRT-18 (protein)
chain: MANQEIRYSEETPYHVTSVWTKGVTPPTNFTQGEDVFHAPYIANQGWYDITKTFNGKDDLLCGAATAGNMLHWWFDQNKEEIEKYLEEHPEKQKINFNGEQMFDVKEVIDTKDSQLDSKLFEYFKEKAFPYLSTKHLGVFPDHVIDMFINGYRLNLTNHGPTPVKEGSKDPRGGIFDAVFTRGDQSKLLTERHDFKEKTLKEISQLIKQELTEGKALGLSHTYANVRINHVINLWGADFDSEGNLEAIYVTDSDSNASIGMKKYFVGVNSAGKVAISAKEIEEDNIGAQVLGLFTLSTGQDIWEQTN
B4: PRT-22 (protein)
chain: MANQEIRYSEVTPYHVTSVWTKGVTPPANFTQGEDVFHAPYVANQGWYDITKTFNGKDDLLCGAATAGNMLHWWFDQNKDQIERYLKEHPEKQKINFNGEQMFDVKEAIDTKNSQLDSKLFEYFKEKAFPYLSTKHLGVFPDHVIDMFINGYRLSLTNHGPTPVKEGSKDPRGGIFDAVFTRGDQSKLLTSRHDFKEKNLKEISDLIKKELTEGKALGLSHTYANVRINHVINLWGADFDSNGNLKAIYVTDSDSNASIGMKKYFVGVNSAGKVAISAKEIKEDNIGAQVLGLFTLSTGQDIWNQTN
B5: PRT-20 (protein)
chain: MANQEIRYSEATPYHITSVWTKGVTPPANFTQGEDVFHAPYVPNQGWYDITKTFNGKDDLLCGAATAGNMLHWWFDQNKDQIERYLKEHPEKQKINFNGEQMFDVKEAIDTKDSQTDSKLFNYFKEKAFPYLSTKHLGVFPDHVLDMFINGYRLSLTNHGPTPVKEQSKDPRGGIFDAVFTRGDQSTLLTSRHDFKEKTLKEISDLIKKELQEGKALGISHTYANVRINHVINLWGADFNSEGNLEAIYVTDSDSNASIGMKKYYVGVNSAGKVAISAKEIEDDNIGAQVLGLFTLSTGKDIWEQTN
B6: PRT-239 (protein)
chain: MEVVEVWPYGQNPNGKTEILSQTEDSESLQRLRDIEDFQAEKKMQNVVYTKWLDGVDVKDHDFRKIVDGGTAYYATPLLNGRGFYDINKDFNRDSLLCSAAVAANMFHYWLDINRDNVDRFLRQNPEKHGIIELPDGQLKLSDFLNTYESDHGYRDKSKLFDYISNNFNGGLWTDKLLDNYINGYGYNKKYGRTIEDPTKNTSKINFFKEVFNEKILTNNHQIRNQNEFSVLLSEALYTGKAIGLSYGPAGLRHSLGHIISVWGADLDADGNVVAIYVTDSDDKKLTIGDERVGLKRYKISTDDNNRLRLTAYEETHNTGGQIRGLWTLDTGKYAWADYFDKTEQTGTDQAEQLEHHHHHH
B7: PRT-240 (protein)
chain: MEVVEVWPYGQNPNGKTEILSQTEDSESLQRLRDIEDFQAEKKMQNVVYTKWLDGVDVKDHDFRKIVDGDYAYYATPLLNGRGFYDINKDFNRDSDKCAAAVAANMFHYWLDINRDNVDRFLRQNPEKHGIIELPDGQLKLSDFLNTYESDHGYRDKSKLFDFISNAFNGPVWADKLLDNYINGYGYNKKYGRTIEDPTKNTSKFNFFKEVFNEKILTNNHQIRNQNEFSVLLSEALYTGKAIGLAYGPGGLRHSLGHIISVWGADLDADGNVVAIYVTDSDDKKLTIGDERVGLKRYKISTDDNNRLRLTTYEETHNTGAQIRGLETLDTGKYAWADYFDKTEQTGTDQAEQLEHHHHHH
B8: PRT-227 (protein)
chain: MEVVEVWPYGQNPNGKTEILSQTEDSESLQRLRDIEDFQAEKKMQNVVYTKWLDGVDVKDHDFRKIVDGNIAYYATPLLNGRGFYDINKDFNRDSDKCAAAVAANMFHYWLDINRDNVDRFLRQNPEKHGIIELPDGQLKLSDFLNTYESDHGYRDKSKLFDFISNNFNGPVWTDKLLDNYINGYAYNYKYGRTIEDPTKNTSKINFFKEVFNEKILTNNHSIRNQNEFSVLLSEALYTGKAIGLSYGPAGLRHSLGHIISVWGADLDADGNVVAIYVTDSDDKKLTIGDERVGLKRYKISTDDENRLRLTAYEETHNTGGQIRGLYTLDTGKYAWADYFDKTEQTGTDQAEQLEHHHHHH
B9: PRT-235 (protein)
chain: B8 chain with H317D, Y327W
B10: PRT-233 (protein)
chain: B8 chain with I113R, Y327W
B11: PRT-232 (protein)
chain: B8 chain with Y327W, Y334E
B12: PRT-237 (protein)
chain: B8 chain with A72E, Y327W
B13: PRT-234 (protein)
chain: B8 chain with H152D, Y327W
B14: PRT-230 (protein)
chain: B8 chain with H152N, Y327W
B15: PRT-231 (protein)
chain: B8 chain with L308A, Y327W
B16: PRT-238 (protein)
chain: B8 chain with N70G, K97L, F163Y, A186G, Y327W
B17: PRT-229 (protein)
chain: B8 chain with M44K, Y327W
B18: PRT-228 (protein)
chain: B8 chain with V231D, Y327W
B19: PRT-236 (protein)
chain: B8 chain with K59D, Y327W

Target: pooled human IgG

Protein | Enzyme Activity Endpoint Assay: Fab′2 [ng/µL] | Enzyme Activity Endpoint Assay: Fc [ng/µL] | Enzyme Activity Endpoint Assay: IgG [ng/µL] | Enzyme Activity Endpoint Assay: scIgG [ng/µL] | Enzyme Activity Endpoint Assay (purified): Fab'2 [ng/µL] | Enzyme Activity Endpoint Assay (purified): Fc [ng/µL] | Enzyme Activity Endpoint Assay (purified): IgG [ng/µL] | Enzyme Activity Endpoint Assay (purified): scIgG [ng/µL]
B1 | 42 | 108 | 13 | 13 | – | – | – | –
B2 | 33 | 111 | 23 | 28 | – | – | – | –
B3 | 44 | 105 | 12 | 11 | – | – | – | –
B4 | 37 | 116 | 19 | 23 | – | – | – | –
B5 | 48 | 124 | 15 | 13 | – | – | – | –
B6 | – | – | – | – | 49 | 269 | 689 | 360
B7 | – | – | – | – | 0 | 82 | 1400 | 36
B8 | – | – | – | – | 22 | 331 | 880 | 492
B9 | – | – | – | – | 116 | 448 | 711 | 483
B10 | – | – | – | – | 94 | 376 | 596 | 415
B11 | – | – | – | – | 40 | 283 | 624 | 393
B12 | – | – | – | – | 828 | 415 | 685 | 461
B13 | – | – | – | – | 88 | 376 | 640 | 432
B14 | – | – | – | – | 699 | 454 | 513 | 396
B15 | – | – | – | – | 176 | 388 | 465 | 313
B16 | – | – | – | – | 0 | 81 | 1610 | 28
B17 | – | – | – | – | 691 | 243 | 1270 | 294
B18 | – | – | – | – | 195 | 583 | 767 | 557
B19 | – | – | – | – | 294 | 615 | 594 | 472
